Ends that are not written are not given here.
Experiments:
human recombinant Hsp90α [1] = target: T1, human recombinant Hsp90α (human, UniProt P07900 1-732); assay: SPR; Biacore 3000; biotin-TPR peptide immobilised on streptavidin (SA) chip; Hsp90 or Hsp70 (0.3, 1 or 2 μM) as analyte, 30 μl/min, 25°C, HBS-EP buffer pH 7.4; conditions: both partners purified
T1 construct: Heat shock protein 90 alpha (Hsp90α), human, recombinant; also called heat shock protein 90; source: bought: Stressgen Bioreagents

human recombinant Hsp90α [2] = target: T1, human recombinant Hsp90α; assay: SPR; competition; Hsp90 or Hsp70 (1 μM) preincubated with TPR peptide (14, 140 or 700 μM) passed over Hop, FKBP5 or PP5 immobilised on CM5 chip; signal without peptide = 100% binding; 25°C, HBS-EP buffer pH 7.4; conditions: both partners purified

Row | Binder | Kd (human recombinant Hsp90α [1]) [nM] | binding result (human recombinant Hsp90α [2])
1 | KAYARIGNSYFK (also: biotin-conjugated, position not given here, Immobilised on a streptavidin sensor chip by its biotin; also called biotin-TPR; immobilized TPR peptide; source: synthetic peptide) [Biotin-conjugated TPR peptide] | 1420 | 
2 | human recombinant PP5 (natural protein, UniProt P53041 1-499, looked up, PP5 (protein phosphatase 5), human, recombinant; Abnova recombinant proteins often carry a GST tag (surmise); source: bought: Abnova) MAMAEGERTECAEPPRDEPPADGALKRAEELKTQANDYFKAKDYENAIKFYSQAIELNPSNAIYYGNRSLAYLRTECYGYALGDATRAIELDKKYIKGYYRRAASNMALGKFRAALRDYETVVKVKPHDKDAKMKYQECNKIVKQKAFERAIAGDEHKRSVVDSLDIESMTIEDEYSGPKLEDGKVTISFMKELMQWYKDQKKLHRKCAYQILVQVKEVLSKLSTLVETTLKETEKITVCGDTHGQFYDLLNIFELNGLPSETNPYIFNGDFVDRGSFSVEVILTLFGFKLLYPDHFHLLRGNHETDNMNQIYGFEGEVKAKYTAQMYELFSEVFEWLPLAQCINGKVLIMHGGLFSEDGVTLDDIRKIERNRQPPDSGPMCDLLWSDPQPQNGRSISKRGVSCQFGPDVTKAFLEENNLDYIIRSHEVKAEGYEVAHGGRCVTVFSAPNYCDQMGNKASYIHLQGSDLRPQFHQFTAVPHPNVKPMAYANTLLQLGMM |  | binds
3 | KAYARIGNSYFK (also called designed TPR peptide; source: synthetic peptide) [TPR peptide (KAYARIGNSYFK)] |  | binds
